Assays:
[1] = target: gp120Sht-LS (clade-A BG505 gp120 fused to lumazine synthase) (HIV-1 clade A BG505 | Aquifex aeolicus); test: native gel or EMSA
[2] = target: BG505 SOSIP.664 gp140 trimer (HIV-1 clade A BG505); test: SEC; Superdex 200 10/300 GL column, after GNL purification

Substance	stoichiometry N [1]	stoichiometry N [2]
gp120Sht-LS (clade-A BG505 gp120 fused to lumazine synthase)	5	–
BG505 SOSIP.664 gp140 trimer (complex)	–	3
